B1: recombinant human αB-crystallin (natural protein, UniProt P02511 1-175, looked up)
chain: MDIAIHHPWIRRPFFPFHSPSRLFDQFFGEHLLESDLFPTSTSLSPFYLRPPSFLRAPSWFDTGLSEMRLEKDRFSVNLDVKHFSPEELKVKVLGDVIEVHGKHEERQDEHGFISREFHRKYRIPADVDPLTITSSLSSDGVLTVNGPRKQVSGPERTIPITREEKPAVTAAPKK

Data set [1] concerns the target B1. The data set can be described thus: cross-linking.
The target in data set [2] is T1, αA66-80 peptide (human).
T1 peptide: SDRDKFVIFLDVKHF
The data set is described as follows: bis-ANS fluorescence.

Data set [3] deals with the molecule itself. The data set is described as follows: cross-linking.

In the case of SDRDKFVIFLDVKHFK (biotin on the added C-terminal lysine (SDRDKFVIFLDVKHFK-Biotin)) [C-terminal biotinylated αA66-80], the binding result in data set [1] is on record as “binds”.
As for EEKPAVTAAPK [αB-crystallin C-terminal peptide 164–174], in data set [2], the binding result is listed as “binds”.
For the molecule B1, the binding result in data set [3] is recorded as “binds”.

Source of the values: publication PMC3796022 (Biochemistry, 2013).
